Series [1] relates to HeLa Kyoto. In words: thermal stability score vs G1/S (z-score of summed log2 fold changes over temperatures); higher = more thermally stable than in G1/S.
The test system of series [2] is HeLa Kyoto. In words: solubility change mitosis vs G1/S (difference of NP-40 vs SDS log2 ratios) (log2 ratio difference); higher = more soluble in mitosis.
Series [3] concerns HeLa Kyoto. The series can be described thus: melting temperature (median over replicates), in situ; higher = more thermally stable.
Series [4] has as its system HeLa Kyoto. The series can be described thus: solubility in G1/S (NP-40 vs SDS abundance) (log2 ratio); higher = more soluble. To be noted: cell cycle stage: G1/S.
The mark [5] stands for this setting: cell cycle stage: early G1 (4.5 h after nocodazole release).

We go through seven sequences from the supplement of paper PMC5998384.
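For melting temperature (median over replicates), in situ in this document: HeLa Kyoto cells synchronized by double thymidine or nocodazole block, proteins quantified by TMT10plex mass spectrometry, three independent biological replicates.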
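For solubility change mitosis vs G1/S (difference of NP-40 vs SDS log2 ratios) in this document: synchronized HeLa Kyoto cells (double thymidine block for G1/S, nocodazole release for mitosis), protein amounts in NP-40 versus SDS lysates quantified by mass spectrometry, three biological replicates.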
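For solubility in G1/S (NP-40 vs SDS abundance) in this document: HeLa Kyoto cells arrested at G1/S by double thymidine block, proteins quantified by TMT10plex mass spectrometry in mild NP-40 versus SDS extracts, three biological replicates.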
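For thermal stability score vs G1/S (z-score of summed log2 fold changes over temperatures) in this document: synchronized HeLa Kyoto cells, proteins quantified by TMT10plex mass spectrometry, three biological replicates, mitosis taken 0.5 h after nocodazole release, G1/S directly after double thymidine block.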

For “MVLWILWRPFGFSGRFLKLESHSITESKSLIPVAWTSLTQMLLEAPGIFLLGQRKRFSTMPETETHERETELFSPPSDVRGMTKLDRTAFKKTVNIPVLKVRKEIVSKLMRSLKRAALQRPGIRRVIEDPEDKESRLIMLDPYKIFTHDSFEKAELSVLEQLNVSPQISKYNLELTYEHFKSEEILRAVLPEGQDVTSGFSRIGHIAHLNLRDHQLPFKHLIGQVMIDKNPGITSAVNKINNIDNMYRNFQMEVLSGEQNMMTKVRENNYTYEFDFSKVYWNPRLSTEHSRITELLKPGDVLFDVFAGVGPFAIPVAKKNCTVFANDLNPESHKWLLYNCKLNKVDQKVKVFNLDGKDFLQGPVKEELMQLLGLSKERKPSVHVVMNLPAKAIEFLSAFKWLLDGQPCSSEFLPIVHCYSFSKDANPAEDVRQRAGAVLGISLEACSSVHLVRNVAPNKEMLCITFQIPASVLYKNQTRNPENHEDPPLKRQRTAEAFSDEKTQIVSNT [TRMT5]”, the values for the thermal stability score in the series with HeLa Kyoto [1] (setting [5]) and with HeLa Kyoto [1] (cell cycle stage: mitosis) were -0.613 and -0.00215, respectively. For the same sequence, the “solubility change mitosis (log2)” value in the series on HeLa Kyoto [2] is -0.0856. Also, the melting temperature was 57.7 °C with HeLa Kyoto [3] (cell cycle stage: G1/S) and 56.1 °C in the series with HeLa Kyoto [3] (cell cycle stage: mitosis). Besides, the “solubility in G1/S (log2)” value in the series on HeLa Kyoto [4] came out at 0.289.
Regarding “MVMAYFVENFWGEKNSGFDVLYHNMKHGQISTKELADFVRERATIEEAYSRSMTKLAKSASNYSQLGTFAPVWDVFKTSTEKLANCHLDLVRKLQELIKEVQKYGEEQVKSHKKTKEEVAGTLEAVQTIQSITQALQKSKENYNAKCVEQERLKKEGATQREIEKAAVKSKKATDTYKLYVEKYALAKADFEQKMTETAQKFQDIEETHLIHIKEIIGSLSNAIKEIHLQIGQVHEEFINNMANTTVESLIQKFAESKGTGKERPGLIEFEECDTASAVEGIKPRKRKTFALPGIIKKEKDAESVECPDADSLNIPDVDEEGYSIKPETNQNDTKENHFYSSSDSDSEDEEPKKYRIEIKPMHPNNSHHTMASLDELKVSIGNITLSPAISRHSPVQMNRNLSNEELTKSKPSAPPNEKGTSDLLAWDPLFGPSLDSSSSSSLTSSSSARPTTPLSVGTIVPPPRPASRPKLTSGKLSGINEIPRPFSPPVTSNTSPPPAAPLARAESSSSISSSASLSAANTPTVGVSRGPSPVSLGNQDTLPVAVALTESVNAYFKGADPTKCIVKITGDMTMSFPSGIIKVFTSNPTPAVLCFRVKNISRLEQILPNAQLVFSDPSQCDSNTKDFWMNMQAVTVYLKKLSEQNPAASYYNVDVLKYQVSSNGIQSTPLNLATYWKCSASTTDLRVDYKYNPEAMVAPSVLSNIQVVVPVDGGVTNMQSLPPAIWNAEQMKAFWKLSSISEKSENGGSGSLRAKFDLSEGPSKPTTLAVQFLSEGSTLSGVDFELVGTGYRLSLIKKRFATGRYLADC [FCHO2]”, the figures for the thermal stability score in the series with HeLa Kyoto [1] (setting [5]) and with HeLa Kyoto [1] (cell cycle stage: mitosis) were -0.516 and 0.0307, respectively. Moreover, the “solubility change mitosis (log2)” value in the series with HeLa Kyoto [2] came out at 0.0613. Also, the melting temperature with HeLa Kyoto [3] (cell cycle stage: G1/S) and in the series on HeLa Kyoto [3] (cell cycle stage: mitosis) was 50.9 °C each time. The “solubility in G1/S (log2)” value in the series with HeLa Kyoto [4] was -0.0326.
With “MVMKASVDDDDSGWELSMPEKMEKSNTNWVDITQDFEEACRELKLGELLHDKLFGLFEAMSAIEMMDPKMDAGMIGNQVNRKVLNFEQAIKDGTIKIKDLTLPELIGIMDTCFCCLITWLEGHSLAQTVFTCLYIHNPDFIEDPAMKAFALGILKICDIAREKVNKAAVFEEEDFQSMTYGFKMANSVTDLRVTGMLKDVEDDMQRRVKSTRSRQGEERDPEVELEHQQCLAVFSRVKFTRVLLTVLIAFTKKETSAVAEAQKLMVQAADLLSAIHNSLHHGIQAQNDTTKGDHPIMMGFEPLVNQRLLPPTFPRYAKIIKREEMVNYFARLIDRIKTVCEVVNLTNLHCILDFFCEFSEQSPCVLSRSLLQTTFLVDNKKVFGTHLMQDMVKDALRSFVSPPVLSPKCYLYNNHQAKDCIDSFVTHCVRPFCSLIQIHGHNRARQRDKLGHILEEFATLQDEAEKVDAALHTMLLKQEPQRQHLACLGTWVLYHNLRIMIQYLLSGFELELYSMHEYYYIYWYLSEFLYAWLMSTLSRADGSQMAEERIMEEQQKGRSSKKTKKKKKVRPLSREITMSQAYQNMCAGMFKTMVAFDMDGKVRKPKFELDSEQVRYEHRFAPFNSVMTPPPVHYLQFKEMSDLNKYSPPPQSPELYVAASKHFQQAKMILENIPNPDHEVNRILKVAKPNFVVMKLLAGGHKKESKVPPEFDFSAHKYFPVVKLV [NAA35]”, the thermal stability score in the series with HeLa Kyoto [1] (setting [5]) turned out to be 0.213; with HeLa Kyoto [1] (cell cycle stage: mitosis) it was 0.348. Moreover, the “solubility change mitosis (log2)” value with HeLa Kyoto [2] was -0.198. The melting temperature in the series with HeLa Kyoto [3] (cell cycle stage: G1/S) amounted to 51.5 °C; with HeLa Kyoto [3] (cell cycle stage: mitosis), 51 °C. For the same sequence, the “solubility in G1/S (log2)” value in the series on HeLa Kyoto [4] was -0.305.
For “MVPSSPAVEKQVPVEPGPDPELRSWRHLVCYLCFYGFMAQIRPGESFITPYLLGPDKNFTREQVTNEITPVLSYSYLAVLVPVFLLTDYLRYTPVLLLQGLSFVSVWLLLLLGHSVAHMQLMELFYSVTMAARIAYSSYIFSLVRPARYQRVAGYSRAAVLLGVFTSSVLGQLLVTVGRVSFSTLNYISLAFLTFSVVLALFLKRPKRSLFFNRDDRGRCETSASELERMNPGPGGKLGHALRVACGDSVLARMLRELGDSLRRPQLRLWSLWWVFNSAGYYLVVYYVHILWNEVDPTTNSARVYNGAADAASTLLGAITSFAAGFVKIRWARWSKLLIAGVTATQAGLVFLLAHTRHPSSIWLCYAAFVLFRGSYQFLVPIATFQIASSLSKELCALVFGVNTFFATIVKTIITFIVSDVRGLGLPVRKQFQLYSVYFLILSIIYFLGAMLDGLRHCQRGHHPRQPPAQGLRSAAEEKAAQALSVQDKGLGGLQPAQSPPLSPEDSLGAVGPASLEQRQSDPYLAQAPAPQAAEFLSPVTTPSPCTLCSAQASGPEAADETCPQLAVHPPGVSKLGLQCLPSDGVQNVNQ [SLC19A1]”, the thermal stability score in the series on HeLa Kyoto [1] (setting [5]) was -3.67; in the series on HeLa Kyoto [1] (cell cycle stage: mitosis) it was -3.7. For the same sequence, in the series on HeLa Kyoto [2], the “solubility change mitosis (log2)” value is -0.0504. The melting temperature in the series with HeLa Kyoto [3] (cell cycle stage: G1/S) is 57 °C; with HeLa Kyoto [3] (cell cycle stage: mitosis) it was 54.9 °C. Also, in the series with HeLa Kyoto [4], the “solubility in G1/S (log2)” value was 0.075.
For “MVQKESQATLEERESELSSNPAASAGASLEPPAAPAPGEDNPAGAGGAAVAGAAGGARRFLCGVVEGFYGRPWVMEQRKELFRRLQKWELNTYLYAPKDDYKHRMFWREMYSVEEAEQLMTLISAAREYEIEFIYAISPGLDITFSNPKEVSTLKRKLDQVSQFGCRSFALLFDDIDHNMCAADKEVFSSFAHAQVSITNEIYQYLGEPETFLFCPTEYCGTFCYPNVSQSPYLRTVGEKLLPGIEVLWTGPKVVSKEIPVESIEEVSKIIKRAPVIWDNIHANDYDQKRLFLGPYKGRSTELIPRLKGVLTNPNCEFEANYVAIHTLATWYKSNMNGVRKDVVMTDSEDSTVSIQIKLENEGSDEDIETDVLYSPQMALKLALTEWLQEFGVPHQYSSRQVAHSGAKASVVDGTPLVAAPSLNATTVVTTVYQEPIMSQGAALSGEPTTLTKEEEKKQPDEEPMDMVVEKQEETDHKNDNQILSEIVEAKMAEELKPMDTDKESIAESKSPEMSMQEDCISDIAPMQTDEQTNKEQFVPGPNEKPLYTAEPVTLEDLQLLADLFYLPYEHGPKGAQMLREFQWLRANSSVVSVNCKGKDSEKIEEWRSRAAKFEEMCGLVMGMFTRLSNCANRTILYDMYSYVWDIKSIMSMVKSFVQWLGCRSHSSAQFLIGDQEPWAFRGGLAGEFQRLLPIDGANDLFFQPPPLTPTSKVYTIRPYFPKDEASVYKICREMYDDGVGLPFQSQPDLIGDKLVGGLLSLSLDYCFVLEDEDGICGYALGTVDVTPFIKKCKISWIPFMQEKYTKPNGDKELSEAEKIMLSFHEEQEVLPETFLANFPSLIKMDIHKKVTDPSVAKSMMACLLSSLKANGSRGAFCEVRPDDKRILEFYSKLGCFEIAKMEGFPKDVVILGRSL [MGEA5]”, the thermal stability score was -1.09 in the series with HeLa Kyoto [1] (setting [5]) and -0.671 in the series with HeLa Kyoto [1] (cell cycle stage: mitosis). In addition, the “solubility change mitosis (log2)” value in the series with HeLa Kyoto [2] was -0.112. Also, the results for the melting temperature in the series on HeLa Kyoto [3] (cell cycle stage: G1/S) and with HeLa Kyoto [3] (cell cycle stage: mitosis) were 52.8 °C and 52.4 °C, respectively. Moreover, the “solubility in G1/S (log2)” value with HeLa Kyoto [4] was -0.0358.
Regarding “MVRGRISRLSVRDVRFPTSLGGHGADAMHTDPDYSAAYVVIETDAEDGIKGCGITFTLGKGTEVVVCAVNALAHHVLNKDLKDIVGDFRGFYRQLTSDGQLRWIGPEKGVVHLATAAVLNAVWDLWAKQEGKPVWKLLVDMDPRMLVSCIDFRYITDVLTEEDALEILQKGQIGKKEREKQMLAQGYPAYTTSCAWLGYSDDTLKQLCAQALKDGWTRFKVKVGADLQDDMRRCQIIRDMIGPEKTLMMDANQRWDVPEAVEWMSKLAKFKPLWIEEPTSPDDILGHATISKALVPLGIGIATGEQCHNRVIFKQLLQAKALQFLQIDSCRLGSVNENLSVLLMAKKFEIPVCPHAGGVGLCELVQHLIIFDYISVSASLENRVCEYVDHLHEHFKYPVMIQRASYMPPKDPGYSTEMKEESVKKHQYPDGEVWKKLLPAQEN [ENOSF1]”, the thermal stability score was -0.19 in the series on HeLa Kyoto [1] (setting [5]) and -1.12 in the series with HeLa Kyoto [1] (cell cycle stage: mitosis). For the same sequence, the “solubility change mitosis (log2)” value in the series on HeLa Kyoto [2] was -0.108. Moreover, the melting temperature in the series on HeLa Kyoto [3] (cell cycle stage: G1/S) was 54.7 °C; with HeLa Kyoto [3] (cell cycle stage: mitosis) it was 55.1 °C. Further, the “solubility in G1/S (log2)” value with HeLa Kyoto [4] was 0.0883.
In the case of “MVRKPVVSTISKGGYLQGNVNGRLPSLGNKEPPGQEKVQLKRKVTLLRGVSIIIGTIIGAGIFISPKGVLQNTGSVGMSLTIWTVCGVLSLFGALSYAELGTTIKKSGGHYTYILEVFGPLPAFVRVWVELLIIRPAATAVISLAFGRYILEPFFIQCEIPELAIKLITAVGITVVMVLNSMSVSWSARIQIFLTFCKLTAILIIIVPGVMQLIKGQTQNFKDAFSGRDSSITRLPLAFYYGMYAYAGWFYLNFVTEEVENPEKTIPLAICISMAIVTIGYVLTNVAYFTTINAEELLLSNAVAVTFSERLLGNFSLAVPIFVALSCFGSMNGGVFAVSRLFYVASREGHLPEILSMIHVRKHTPLPAVIVLHPLTMIMLFSGDLDSLLNFLSFARWLFIGLAVAGLIYLRYKCPDMHRPFKVPLFIPALFSFTCLFMVALSLYSDPFSTGIGFVITLTGVPAYYLFIIWDKKPRWFRIMSEKITRTLQIILEVVPEEDKL [SLC7A11]”, the results for the thermal stability score in the series on HeLa Kyoto [1] (setting [5]) and in the series with HeLa Kyoto [1] (cell cycle stage: mitosis) were 0.372 and 0.123, respectively. The “solubility change mitosis (log2)” value in the series with HeLa Kyoto [2] is -0.169. The sequence also had a melting temperature with HeLa Kyoto [3] (cell cycle stage: mitosis) of 57.5 °C. The “solubility in G1/S (log2)” value with HeLa Kyoto [4] was -0.0116.
